{"source": "patent US20240294635A1", "key": {"[1]": {"target": "CD47 on the red cell surface (Homo sapiens (Human)) (UniProt Q08722)", "assay": "flow cytometry on fixed red cells, antibody 1 µg/mL"}, "[2]": {"target": "CD47 on the red cell surface (Homo sapiens (Human)) (UniProt Q08722)", "assay": "flow cytometry on fixed red cells, antibody 10 µg/mL"}}}
{"substance": "IgG4 (antibody)", "values": [{"measurement": "MFI", "setting": "[1]", "value": 449, "unit": "MFI"}, {"measurement": "MFI", "setting": "[2]", "value": 484, "unit": "MFI"}]}
